In publication PMC11815680, “Receptor-independent regulation of Gα13 by alpha-1-antitrypsin C-terminal peptides” (The Journal of Biological Chemistry, 2024):

Assays:
Settings in all cases: both partners purified
[1] = molecular target: T1, GST-p115-RH (human p115RhoGEF amino acid residues 1-252, N-terminal region including the RH domain) (human, UniProt Q92888 1-252); assay: pull-down; GST-RH protein on glutathione-Sepharose 4B, untagged Gα13iN (2 μg) in buffer A (20 mM HEPES, 5 mM βME, 1 mM MgCl2, 100 mM NaCl, 10 μM GDP, 0.1% C12E10, pH 8.0) with AlF4^- (30 μM AlCl3, 5 mM MgCl2, 5 mM NaF), 60 min at 4 °C; blot with Gα13 antibodies
T1 construct: human p115RhoGEF, amino acid residues 1-252 (the results once say 1-246); also called p115-RhoGEF-RH; source: E. coli BL21[DE3], purified (glutathione-sepharose 4B, eluted with glutathione, dialysed)
T1 sequence (looked up): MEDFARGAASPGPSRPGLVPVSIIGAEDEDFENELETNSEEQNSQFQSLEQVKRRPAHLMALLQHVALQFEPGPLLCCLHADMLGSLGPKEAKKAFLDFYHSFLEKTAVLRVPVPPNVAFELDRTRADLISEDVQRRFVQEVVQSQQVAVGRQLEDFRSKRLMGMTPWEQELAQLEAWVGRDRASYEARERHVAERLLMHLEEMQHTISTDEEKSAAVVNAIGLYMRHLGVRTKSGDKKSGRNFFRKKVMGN

[2] = molecular target: T2, GST-LARG-RH (human LARG amino acid residues 319-598) (human, UniProt Q9NZN5 319-598); assay: pull-down; as a2 but buffer A with 10 μM GDP and mAAT-C_(3-16) added instead of AlF4^-
T2 construct: human LARG (leukemia-associated RhoGEF), amino acid residues 319-598; also called leukemia-associated RhoGEF RH; source: E. coli BL21[DE3], purified (glutathione-sepharose 4B, eluted with glutathione, dialysed)
T2 sequence (looked up): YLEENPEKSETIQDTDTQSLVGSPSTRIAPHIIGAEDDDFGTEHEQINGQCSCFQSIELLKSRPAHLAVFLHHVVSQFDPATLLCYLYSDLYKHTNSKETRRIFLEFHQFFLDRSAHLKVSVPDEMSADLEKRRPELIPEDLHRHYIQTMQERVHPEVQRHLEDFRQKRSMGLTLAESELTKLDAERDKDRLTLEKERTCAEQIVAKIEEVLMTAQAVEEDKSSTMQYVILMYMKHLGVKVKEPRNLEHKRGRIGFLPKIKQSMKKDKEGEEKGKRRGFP

[3] = molecular target: T3, GST-p115-RH(42-252), the RGS box of p115-RhoGEF-RH which lacks the N-terminal extension (human, UniProt Q92888 42-252); assay: pull-down; as a2 but buffer A with 10 μM GDP and mAAT-C_(1-17) added instead of AlF4^-
T3 construct: human p115RhoGEF, residues 42-252 (RGS box, lacks the N-terminal extension); also called p115-RhoGEF-RH domain (42–252); source: E. coli BL21[DE3], purified (glutathione-sepharose 4B, eluted with glutathione, dialysed)
T3 sequence (looked up): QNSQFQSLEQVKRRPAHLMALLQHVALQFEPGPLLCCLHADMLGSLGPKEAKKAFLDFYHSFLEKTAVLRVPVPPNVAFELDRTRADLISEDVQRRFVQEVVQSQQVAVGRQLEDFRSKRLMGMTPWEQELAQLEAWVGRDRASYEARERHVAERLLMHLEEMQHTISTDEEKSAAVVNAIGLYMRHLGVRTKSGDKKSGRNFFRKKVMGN

binding result [1]: binds
binding result [2]: binds
binding result [3]: binds
B1: untagged Gα13iN recombinant protein (GDP-bound) (other, rat | mouse, UniProt P10824 1-28, looked up)
chain: MGCTLSAEDKAAVERSKMIDRNLREDGERLVKILLLGAGESGKSTFLKQMRIIHGQDFDQRAREEFRPTIYSNVIKGMRVLVDAREKLHIPWGDNKNQLHGDKLMAFDTRAPMAAQGMVETRVFLQYLPAIRALWEDSGIQNAYDRRREFQLGESVKYFLDNLDKLGVPDYIPSQQDILLARRPTKGIHEYDFEIKNVPFKMVDVGGQRSERKRWFECFDSVTSILFLVSSSEFDQVLMEDRQTNRLTESLNIFETIVNNRVFSNVSIILFLNKTDLLEEKVQVVSIKDYFLEFEGDPHCLRDVQKFLVECFRGKRRDQQQRPLYHHFTTAINTENIRLVFRDVKDTILHDNLKQLMLQ
notes: N-terminal region (αN helix) of rat Gαi1, amino acid residues 1-28; A few vector residues are likely left after PreScission cleavage of the pGEX-6P-1 product (surmise); also called Gα13iN・GDP; Gα13・GDP; source: E. coli BL21[DE3], purified (glutathione-sepharose 4B, cut off the column with PreScission Protease, dialysed; GDP added to 10 μM)
